Experimental data from PMC9523049, “Structures of Mec1/ATR kinase endogenously stimulated by different genotoxins” (Cell Discovery, 2022).

Biological target: T1, Mec1 (yeast homolog of ATR), wild type, activated in vivo by HU or MMS (yeast (endogenous in cultured yeast …, UniProt P38111 1-2368))
T1 construct: Mec1 kinase, yeast homolog of human ATR, wild type, endogenous; purified together with Ddc2; they may stand in the supplementary file; also called ATR/Mec1; Mec1/ATR kinase; source: endogenously purified from cultured yeast cells treated with HU or MMS
Test: cryo-EM structure; Mec1-Ddc2 complex endogenously purified from yeast cells treated with HU (HU-Dimer1, HU-Dimer2) or MMS (MMS-Dimer)
Conditions: both partners purified

T1 sequence (P38111 whole entry): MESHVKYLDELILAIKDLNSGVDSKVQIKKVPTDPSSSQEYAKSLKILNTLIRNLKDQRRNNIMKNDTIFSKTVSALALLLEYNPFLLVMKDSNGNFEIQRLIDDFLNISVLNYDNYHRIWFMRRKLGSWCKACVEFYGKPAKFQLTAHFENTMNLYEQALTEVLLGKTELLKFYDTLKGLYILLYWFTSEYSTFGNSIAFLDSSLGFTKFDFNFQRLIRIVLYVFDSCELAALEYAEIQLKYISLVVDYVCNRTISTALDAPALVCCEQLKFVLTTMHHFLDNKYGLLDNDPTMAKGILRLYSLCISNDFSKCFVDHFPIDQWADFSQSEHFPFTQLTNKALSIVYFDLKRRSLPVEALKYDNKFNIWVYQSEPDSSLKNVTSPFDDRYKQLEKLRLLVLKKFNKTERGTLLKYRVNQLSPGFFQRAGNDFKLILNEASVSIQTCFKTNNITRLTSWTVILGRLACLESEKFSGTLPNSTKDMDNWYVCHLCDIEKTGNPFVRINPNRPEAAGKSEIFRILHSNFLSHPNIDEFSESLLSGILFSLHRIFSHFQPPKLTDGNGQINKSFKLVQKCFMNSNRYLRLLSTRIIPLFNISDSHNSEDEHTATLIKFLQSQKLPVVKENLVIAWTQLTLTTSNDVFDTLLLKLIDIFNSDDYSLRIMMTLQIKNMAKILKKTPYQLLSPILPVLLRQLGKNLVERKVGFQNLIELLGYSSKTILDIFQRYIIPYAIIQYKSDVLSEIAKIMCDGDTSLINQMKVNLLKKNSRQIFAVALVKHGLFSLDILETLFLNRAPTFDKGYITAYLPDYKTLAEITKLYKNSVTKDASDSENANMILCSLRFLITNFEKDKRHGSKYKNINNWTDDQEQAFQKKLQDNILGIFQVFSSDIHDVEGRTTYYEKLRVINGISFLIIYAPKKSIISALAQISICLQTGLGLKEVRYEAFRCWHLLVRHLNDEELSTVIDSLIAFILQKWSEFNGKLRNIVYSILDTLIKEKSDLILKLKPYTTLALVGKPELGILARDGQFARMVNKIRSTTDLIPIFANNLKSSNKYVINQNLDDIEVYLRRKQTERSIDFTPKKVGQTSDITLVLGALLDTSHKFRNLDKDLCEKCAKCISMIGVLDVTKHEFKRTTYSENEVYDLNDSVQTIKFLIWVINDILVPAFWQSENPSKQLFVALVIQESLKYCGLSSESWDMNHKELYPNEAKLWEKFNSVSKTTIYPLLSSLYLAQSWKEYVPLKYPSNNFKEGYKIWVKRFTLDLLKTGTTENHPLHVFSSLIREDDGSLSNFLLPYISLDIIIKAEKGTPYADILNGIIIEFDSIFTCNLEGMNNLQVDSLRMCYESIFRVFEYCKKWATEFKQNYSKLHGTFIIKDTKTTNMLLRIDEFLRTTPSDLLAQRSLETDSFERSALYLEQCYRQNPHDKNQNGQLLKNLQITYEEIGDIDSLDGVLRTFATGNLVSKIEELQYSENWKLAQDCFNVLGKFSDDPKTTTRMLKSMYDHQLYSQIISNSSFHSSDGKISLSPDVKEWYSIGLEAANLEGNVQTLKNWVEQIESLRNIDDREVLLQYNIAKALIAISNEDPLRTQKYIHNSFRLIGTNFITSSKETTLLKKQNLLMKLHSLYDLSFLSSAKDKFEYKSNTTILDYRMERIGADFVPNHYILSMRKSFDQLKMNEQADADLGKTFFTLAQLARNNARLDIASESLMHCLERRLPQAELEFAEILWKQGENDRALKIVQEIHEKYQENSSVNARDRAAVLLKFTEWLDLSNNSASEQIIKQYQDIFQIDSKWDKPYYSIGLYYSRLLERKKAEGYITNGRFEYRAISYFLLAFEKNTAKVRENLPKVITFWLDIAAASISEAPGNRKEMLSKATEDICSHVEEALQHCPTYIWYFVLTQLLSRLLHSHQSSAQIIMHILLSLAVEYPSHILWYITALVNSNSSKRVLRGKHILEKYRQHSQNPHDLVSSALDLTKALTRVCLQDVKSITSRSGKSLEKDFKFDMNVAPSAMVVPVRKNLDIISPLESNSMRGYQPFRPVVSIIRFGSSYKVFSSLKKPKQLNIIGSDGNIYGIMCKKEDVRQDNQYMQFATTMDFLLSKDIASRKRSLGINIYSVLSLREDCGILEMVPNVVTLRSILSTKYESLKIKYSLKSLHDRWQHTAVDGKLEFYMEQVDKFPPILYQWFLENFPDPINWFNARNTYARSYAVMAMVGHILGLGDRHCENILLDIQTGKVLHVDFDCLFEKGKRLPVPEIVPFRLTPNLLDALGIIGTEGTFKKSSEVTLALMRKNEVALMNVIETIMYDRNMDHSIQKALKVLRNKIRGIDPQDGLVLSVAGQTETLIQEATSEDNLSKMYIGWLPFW

B1: Ddc2 (yeast homolog of ATRIP) (natural protein, UniProt Q04377 1-747, looked up)
chain: MRRETVGEFSSDDDDDILLELGTRPPRFTQIPPSSAALQTQIPTTLEVTTTTLNNKQSKNDNQLVNQLNKAQGEASMLRDKINFLNIEREKEKNIQAVKVNELQVKHLQELAKLKQELQKLEDEKKFLQMEARGKSKREVITNVKPPSTTLSTNTNTITPDSSSVAIEAKPQSPQSKKRKISDNLLKKNMVPLNPNRIIPDETSLFLESILLHQIIGADLSTIEILNRLKLDYITEFKFKNFVIAKGAPIGKSIVSLLLRCKKTLTLDRFIDTLLEDIAVLIKEISVHPNESKLAVPFLVALMYQIVQFRPSATHNLALKDCFLFICDLIRIYHHVLKVPIHESNMNLHVEPQIFQYELIDYLIISYSFDLLEGILRVLQSHPKQTYMEFFDENILKSFEFVYKLALTISYKPMVNVIFSAVEVVNIITSIILNMDNSSDLKSLISGSWWRDCITRLYALLEKEIKSGDVYNENVDTTTLHMSKYHDFFGLIRNIGDNELGGLISKLIYTDRLQSVPRVISKEDIGMDSDKFTAPIIGYKMEKWLLKLKDEVLNIFENLLMIYGDDATIVNGEMLIHSSKFLSREQALMIERYVGQDSPNLDLRCHLIEHTLTIIYRLWKDHFKQLREEQIKQVESQLIMSLWRFLVCQTETVTANEREMRDHRHLVDSLHDLTIKDQASYYEDAFEDLPEYIEEELKMQLNKRTGRIMQVKYDEKFQEMARTILESKSFDLTTLEEADSLYISMGL
notes: Ddc2, yeast homolog of human ATRIP, endogenous; purified together with Mec1; they may stand in the supplementary file; source: endogenously purified from cultured yeast cells treated with HU or MMS
binding result: binds
